The values that follow come from the DeepSol protein solubility set.

The data set is described as follows: soluble on expression in E. coli; label from the status in PepcDB or PDB records.
Turning to “MGSDKIHHHHHHMTNIEVEINDNYICVYERLNDDCIRLLHMYGKNPVCVVPDMLDGMRVTELAEYCFSFKSMPEKLKTELGIDDILRPDMTELCDDYIERVILPDGMKKIGRLCFYNCSRLTMLELPSDICDVDGDAFMNCTKLYMLVMRGSPKDKSCLKQILSQISTLVRVRWADSDGNAIAQACFFEYDQTYDEIGPAHIFKLNMNGEGFRARQAFMDRVFVWKQYDEIFSEAIAQESEDDLLDMAFYRLIYAYELSKEARQQFLEYIVNHKKRLSELIIRKRDSGLLQSFLELKDGEENFIADVLAVTDMLALAAQDEWSEGSVILHRFKKENLSVSRKRRFEF”, the “soluble on expression in E. coli” value is on record as “not soluble”.

As to “MGSDKIHHHHHHMEKLEKTVDMNIQQMINLSVLELVKLGLKYGIFKAVSKKISYIDLLNQVDVPNKPLLKKLIDHLKLLGIIEETPTHLLLNSFSYEIRFPKEEHMYLLPDWIPSFEEIYRMVDFALITPNHPHVLMDFDKDADFWDLRLSSTFHEAYRILIAKLGEIGEGSRVLDIGCGSASPAYFGKLVGEEGEYVGVDYSPALLEIAKNRTEGLPVKLKEMDASLIKPKNKYDVAIMSFVLEYIENRRSALRNALDSLESGGKLIIVDAFKDEFRNVEALEFFEGLNSAFREYPSKKYIKEVILDEGFEVKFGDYGKAILLIEKL”, the “soluble on expression in E. coli” value is “not soluble”.

“MARAIAIDAPLSAGIRRTKKSPIKRASVGGVKKRFSTGTAGPSRRPTAQPRRQSGGIRTVDRSIPANENREVRINLSNLAHTVHSGDLRQLFAEFKIRNVSVNFNEHGKPVGTGDVTLPKRHADRLIQKFAGVSLDGKEIKFAIIDSANIANRVKFPEAPRRAPSNGRPAQRAPKRQNVKSGKPTGGAGAQKKLKAKKPKREAQPKKTLEELDAELDVYMSKA”: the “soluble on expression in E. coli” value is “not soluble”.

Regarding “MNALLVMTGLAAAASGRIGAACSALLGGGAVRGRSAGASGDEAQAQDADSSPEADRLEDVSPSGAFAGVIAALEVQAPVRDVPPPTDDLANEGEDIARSRVAATAADAVTSGGAARSPRDALGGLAFGQSPMIEAGKALYVSPVRDDERLRNGERFRDGERLRDGADGARAGMRDAASAAGAASTSRVGQPGAGAPRDQQALSQSPGQQAADKPPAGAPGPQEGTIGAPVDMPRAAARAHSPQSAPVRLGAELMSVLGERIDVQLQRGVERAVIRLDPQSMGTLHIAIRHEGGSVQIQMIASHEEVARQLQTMSEALRQDLSSRHHGDVTVVVRHGQGMEQGAGHGEGGAHREEKRPGAALAEADVPDGDDGFRLDGRDVI”, the “soluble on expression in E. coli” value was “not soluble”.

As for “SLRPIPYLPNMIGLITGRASAAERDVTTVASARWPAARFAVRNVAVQGPNAVGQIVEALRELDRDPDVDVIVLARGGGSVEDLLPFSDETLCRAIAACRTPVVSAVGHEPDNPLCDLVVDLRAATPTDAAKKVVPDTAAEQRLIDDLRRRSAQALRNWVSREQRAVAQLRSRPVLADPMTMVSVRAEEVHRARSTLRRNLTLMVAAETERIGHLAARLATLGPAATLARGYAIVQTVAQTGPEGGSEPQVLRSVHDAPEGTKLRVRVADGALAAVSEGQTNGL”, the “soluble on expression in E. coli” value is given as “soluble”.

With “MNFDVAIIGGGLAGLTCAIALQQRGKRCVIINNGQAAIDFASGSLDLLSRMPSTTYGENRAVENLKENITALRNELPAHPYSLLGAEKVLAKAQDFERLANELHLDLIGSTEKNHWRVTGLGSLRGAWLSPNSVPTVQGNEPFPHKRIAVLGIEGYHDFQPQLLAANLVLNPQFEHCEVTSGFLNIPQLDELRKNAREFRSVNISQLLEHKLAFKDLVKEIIESAQGAEAVFLPACFGLENQEFMTALRDATKLALFELPTLPPSLLGMRQRIQLRHKFESLGGLMINGDSALNATFEGNQVRCINTRLLEDEEITADNFVLASGSFFSKGLISEFDKIYEPVFESDIIGVEGFNNKDRFTWTAHRFAHPQPYQSAGVAINAQCQVKKCGQFLTNLYAVGNVIGGFNALELGCGSGVAVVTALAVADEILAKLEHHHHHH”, the “soluble on expression in E. coli” value was “soluble”.

On to “MNRLQGMELFVEVARTLSFGRAAENLAIPKSTLSRQVAELERSVGLRLLSRTTRRVELTEAGQLYFERCQRIVAEARIAHEELQNLVETPSGPLRVNMPADFGTDFLSEAFTEFSRRYPEVTFYLDLASPEHAERVFQTCDVSIEIGDLPDSTHIARLLGVLPAHLYASPDYLARHGEPQHPDDLPRHECIQFRAGTGRVTRWPLNSGERHVEITPGNRFSVNSVSMVRNLATLGAGIAILAPMGNVREDIESGRLKRILPDWLAGPFPVYAVTDTRMLPAKTRIFVEFLMERLSNKTLAGQNNPAFLNLR”, for which the “soluble on expression in E. coli” value is recorded as “not soluble”.

As for “MRKDRVTQGVDRIMQAIADKEFELGQAIPGEAKLAEFLDVSRPTMREVVRTLADRGVLEVVHGRGTFVAPLDHWSDVRSRVDFISRTLSPGEVGFHLTEVRRMIEVGSCGHAAARAEDCDLDRMQTALDAYDAALEAHDVAGIAKSDVEFHNAIFEATKNPVVTALMIPLEGELAASRLRTSAVSEVAERAQEHHRRIYSAIKASDEEGAKNAMRAHMSQTFDDLQRFVGEY”, the “soluble on expression in E. coli” value is given as “not soluble”.

Take “MSGEGMTAVSEPVQLTVPQMLAQLQGTDTSLRYYAAWWLGKFGLETATAAERQAIVSALIAALADEADRTELGGYPLRRNAARALGKLGDRQAVPALIECLRCEDFYVREAAAIALGQLGDPRAIAPLQSLLEGGVAMARLVPGRPHLVQPVEAVIESLGHLGATEAIALIEPFLAHEMPRVQFAAARALFQLTGDAVYGDRLLAALNSEDVQLRRTALLDLGAMGYLPAAEAILQAGVEASFKLIALHGILGQQLRQAAPAEQTLSLFQGLDQLLLEHHHHHH”: the “soluble on expression in E. coli” value is listed as “soluble”.

For the sequence “MAHHHHHHMAAYGIVESPDNVDYKTKCCCQTTDGVYFQVPKEYFRLHANLSRRKLLIAEPFGVPLDSSAFESLVVLLEKAAIVSPAAATAGTEVVSKGDGAKQQWIKDLNKRQQKFVGACLGVTTWDGADVYFYEEKLPKESDVVWVKVIQVNDTSAVVQLLEYGNHEGIIPYTEITRIRIRAIGKVIKVGKNEAAQVIRIDKDKGYIDLSKKQVTLKEAKDCEARFFKGNEVRSVVCHVADECGVPPAEAMKRIAYPLYRRQPGKHAWEWLYELNQTKDVKGILGDLEISEAEIKVLMTTLEHTMRTEIATIHADIEMTCFQCDGVNALREVLLVGRDFKAGKDPLIPISVTIVGPPKYRLRAKTELKEEGIVRMKEAIEMMKIEMAKRGGILKVVAGPFVLGEEEHTKEERNEDAEDDEGEDTD”, the “soluble on expression in E. coli” value is given as “not soluble”.

With “MTTIEIDAPAGPIDALLGLPPGQGPWPGVVVVHDAVGYVPDNKLISERIARAGYVVLTPNMYARGGRARCITRVFRELLTKRGRALDDILAARDHLLAMPECSGRVGIVGFCMGGQFALVLSPRGFGATAPFYGTPLPRHLSETLNGACPIVASFGTRDPLGIGAANRLRKVTAAKNIPADIKSYPGAGHSFANKLPGQPLVRIAGFGYNEAATEDAWRRVFEFFGQHLRAGSPGEP”, the “soluble on expression in E. coli” value is on record as “soluble”.

Take “MGDEVGRGHFGYTCAAKIKKGARKGDAVAVKVIPKAKMTTSIAIEDVRREVKILKALAGHKNLVQFYDAYEDNDNVYIVMELCEGGELLDRILSRGGKYSEDDAKAVLVQILNVVSFCHIQGVVHRDLKPENFLFTSKDENSQLKAIDFGLSDFVKPDERLNDIVGSAYYVAPEVLHRCYSTEADVWSIGVIAYILLCGSRPFWARTESGIFRSVLKADPSYNEAPWPSLTLEAMDFVKRLLCKDPRRRMTAAQALSHPWIRNYNDIKLPLDILIFRLIKAYIRSSSLRKAALRALSKTLTVDELFYLKGQFSLLEPDRNGCITLDNIRMALTREATYAMKESRVQEILVSLSALQYRRMDFQEFCAAAVSVHQLEALDRWEQHARSAYDFFEKDGNRAIVIDELASELGLSPSVPLHVVLQDWIRHTDGKLSFLGFVKLLHGMSSRSLSKMR”: the “soluble on expression in E. coli” value is “not soluble”.

For the sequence “MGSDKIHHHHHHMKMHVAFVHRRGFGQFAALARHLAEAGNEVTLVTETVDQRIPSVRVVRHRAEPGPQPNPHIARHLGVPDHHVRIGHRVAETFDAMGRLGQSPDIVLGHIGWGSMMFVKDVLPRVPALGYCEFFYRSEGADVGFAPDDRPDSETRKRLRLRNIAQLLSLEAMDGGISPTNWQKSLYPADARQRIAVCHEGVDTRRFRPDPAASLKLPDGRVLKAGDPVVTFVARDLEPYRGFPQALEAAAKVVRRHPDALFVFVGGDGVSYGAPPPGGGSWKDHLLASLDVPRERLIFPGVVPHSVLRQLFQISAAHLYLTYPFVLSWSVLEAMACGALVIGSDTAPVQEVIRSGRNGLLVPFFDTDALAETIVGALNRPDNFRELRGAARRTVEQRFRLDDCLARQLTLIGNLTGRNAAQAKETQFV”, the “soluble on expression in E. coli” value is on record as “not soluble”.

Turning to “MVYKTKLGEIEISDESIFTFEKGIPGFEHLRKFALVFPQETFPIGWLLSLEDSEVGLPVVDPKLVRADYDPAVPSEDLEEIEAENQEALLFFCVLTIPPGKPEKTTINLRAPIILNQKKKKGIQTILENEDYQLRHLLSEEIERSKTVVAAALEHHHHHH”, the “soluble on expression in E. coli” value is recorded as “soluble”.

For “MINKDTQLCMSLSGRPSNFGTTFHNYLYDKLGLNFIYKAFTTQDIEHAIKGVRALGIRGCAVSMPFKETCMPFLDEIHPSAQAIESVNTIVNDNGFLRAYNTDYIAIVKLIEKYHLNKNAKVIVHGSGGMAKAVVAAFKNSGFEKLKIYARNVKTGQYLAALYGYAYINSLENQQADILVNVTSIGMKGGKEEMDLAFPKAFIDNASVAFDVVAMPVETPFIRYAQARGKQTISGAAVIVLQAVEQFELYTHQRPSDELIAEAAAFARTKFLEHHHHHH”, the “soluble on expression in E. coli” value is recorded as “soluble”.

With “MKETIMNQKLTKRQAEVHTGRKGTAHRKKVVHTTAEDKKFQFSLKKLGVNNIPGIEEVNMFTHQGTVIHFNNPEVQASLAANTFTMTGHAETKQLTEMLLSIDHKPVLQMV”, the “soluble on expression in E. coli” value is reported as “soluble”.

In the case of “MLKNLRIRKFEPEEEYVYFTYSIKNDKREKSKELIREYTTLLQKAIDYLWNLTKIQVRKKNGNYKITLPKKREVYKPLREELEKINHLASHYVDKAINDAFSILKSWRKRAIKGRASIEKPRVKKAYVRIKTTLRKVVGESVRITVRPHEYITFSWSKSWFSRRVRELELGEPIIKEEKVYLPFRYKLPWATPVDFLAIDSNLYTLDAYDGEKFVTISLKQLYSLKYSMEVKRAKVQSFASKHTKRGRELMRKYSHRERNRVLDFVHKFVNTLLDLYPMTFFAVEKLNKESMFKDANDSLSRKISRTVWGSIHRVLKYKAPLYGSFVKEVNPRFTSRSCPRCGFVSRKVGKTFECERCGFKLDRQLNASLNIYLKMCGFPHIREIARVWVGVIPLMGRRGMNGFPRDFGEAQGLRIDIEYHEIPLEHHHHHH”, the “soluble on expression in E. coli” value was “soluble”.

For “ALTVRKHYTKEQARVTVVNKYPTHQIITELHRLAAGNVSEKAVAMPLEKLFKGKDIDLKIAEVSSFSVDKKEVALADGSTLTYDALVVGLGSVTAYFGIPGLEENSMVLKSAADANKVFQHVEDRVREYSKTKNEADATILIGGGGLTGVELVGELADIMPNLAKKYGVDHKEIKLKLVEAGPKILPVLPDDLIERATASLEKRGVEFLTGLPVTNVEGNVIDLKDGSKVVANTFVWTGGVQGNPLVGESGLEVNRGRATVNDFLQSTSHEDVFVAGDSAVYFGPDGRPYPPTAQIAWQMGELIGYNLFAYLEGKTLETFKPVNSGTLASLGRKDAVAIIGANSTPLKGLPASLMKEASNVRYLTHIK”, the “soluble on expression in E. coli” value is listed as “not soluble”.

Take “GMNSGKVAFIVTKNGKRICDVIDECSQRGSTILKAQGGYKQDDIQVVMCACNSKEMYQVRKSVKDTDPDSFIVVVESHEVHGEGFKMTNIGEAEN”: the “soluble on expression in E. coli” value is reported as “not soluble”.
